From article PMC12218292 (Nature Communications, 2025)

T1: Rad51 (S. cerevisiae), P25454
T1 chain: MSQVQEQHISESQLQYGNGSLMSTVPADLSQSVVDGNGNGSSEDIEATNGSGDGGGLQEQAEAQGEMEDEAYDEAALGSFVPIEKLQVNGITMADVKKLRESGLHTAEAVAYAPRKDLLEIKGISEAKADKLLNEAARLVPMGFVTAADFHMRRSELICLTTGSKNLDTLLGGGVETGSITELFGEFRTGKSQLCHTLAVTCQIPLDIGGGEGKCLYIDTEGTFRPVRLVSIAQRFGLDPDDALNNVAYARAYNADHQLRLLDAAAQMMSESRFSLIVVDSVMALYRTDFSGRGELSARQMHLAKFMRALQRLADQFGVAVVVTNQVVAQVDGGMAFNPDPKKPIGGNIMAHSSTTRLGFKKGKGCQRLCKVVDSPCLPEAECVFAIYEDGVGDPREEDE

B1: Rad51 (natural protein, S. cerevisiae, UniProt P25454 1-400, looked up)
chain: T1 chain
notes: Oligomeric alone in solution; also called full-length unlabeled Rad51

target: Rad51 (in yeast cells) (UniProt P25454); assay: co-immunoprecipitation (co-IP); conditions: read off a plot

| other: interaction loss by coIP (%) | Molecule |
| --- | --- |
| 97% | Rad52-FLAG (from UniProt P06778) T318 |
| 27% | Rad52-FLAG (from UniProt P06778) L363 |
| 79% | Rad52-FLAG (from UniProt P06778) P381 |
| 100% | Rad52-FLAG (from UniProt P06778) S355 |
| 89% | Rad52-FLAG (from UniProt P06778) V325 |
| 80% | Rad52-FLAG (from UniProt P06778) V317 |
| 33% | Rad52-FLAG (from UniProt P06778) S374 |
| 99% | Rad52-FLAG (from UniProt P06778) A319 |
| 49% | Rad52-FLAG (from UniProt P06778) V350 |
| 100% | Rad52-FLAG (from UniProt P06778) V358E |

Target: T1, Rad51 (S. cerevisiae), P25454
Assay: SEC-SAXS; Rad51 + Rad52 (295–408) 1:1; SWING beamline in SEC mode, Superdex 5/150 GL column; peak deconvolution; molecular weight from SAXS
Conditions: remark: other sources report otherwise

| stoichiometry N | Molecule |
| --- | --- |
| 4 | B1 |

target: T2, Rad52 (295–408) (S. cerevisiae, UniProt P06778 295-408, uniform 15N labelling); assay: as above; conditions: both partners purified
T2 construct: numbered from the first AUG codon in RAD52 mRNA (protein of 471 residues); Cloned in pETM30; also called Rad52C-ter; Rad52-Cter; source: E. coli BL21(DE3), purified (GSH-sepharose, TEV cleavage, Ni Sepharose, PD10)
T2 sequence (P06778 295-408): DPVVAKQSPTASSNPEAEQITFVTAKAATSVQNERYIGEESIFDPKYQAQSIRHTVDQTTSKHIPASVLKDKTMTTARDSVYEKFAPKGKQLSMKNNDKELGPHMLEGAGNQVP

| stoichiometry N | Molecule |
| --- | --- |
| 1 | B1 |
